Patent US6509447B1, “G protein chimeras and methods of screening compounds” (Glaxo Welcome Inc., priority 1997, dated 2003)

What was measured:
[1] = test system: pheromone response pathway; assay: Chemiluminescent β-galactosidase assay of FUS1-LacZ in MMY9 cells; type: cell-based, Saccharomyces cerevisiae; conditions: GPA1 promoter, mean ±SD, n≧5
Procedure: (§1) Assays for FUS1-IacZ Expression. β-galactosidase activities in cell extracts were measured with two assays. In the first assay (ONPG assay), cell extracts were incubated with the substrate ONPG as described by (37). Units were defined as (A420×1000)/(OD600x×t×v) (25). In the chemiluminescent assay, cells were grown to late logarithmic phase and diluted to 0.02 OD600 in 100 μl SC-WH medium in the presence or absence of 1 μM α-factor in 96-well microtitre plates. After incubation (30° C.; 6 hours), 20 μl of cells were removed and mixed with 20 μl assay mix (125 mM sodium phosphate pH 7.6, 15 mM MgSO4, 200 μM Galacton-Star β-galactosidase substrate (Tropix), 10% (v/v) Sapphire II (Tropix), 1 U/μl oxalyticase (Enzogenetics)). After incubation (30° C.; 1 hr) chemiluminescence was determined in a Top-count scintillation counter (Packard).
A Gpa1/Gαs chimera has been reported to couple the growth hormone releasing hormone receptor (12) when expressed from the strong constitutive promoter of the yeast phosphoglycerate kinase (PGK1) gene. We constructed Gpa1/Gαs and Gpa1/Gαq chimeras similar to those described above (FIG. 5b) and expressed them in MMY9 cells from the promoter of the GPA1 gene. We assayed FUS1-LacZ activity in these cells using a chemiluminescent assay, rather than the ONPG assay described above. […]

[2] = test system: pheromone response pathway (FUS1-LacZ; Ste2p receptor); assay: ONPG β-galactosidase assay of FUS1-LacZ in extracts of MMY9 cells; type: cell-based, Saccharomyces cerevisiae; conditions: G protein expressed from GPA1 promoter
Procedure: as §1
The Gα15/Gα16 subunits are reported to interact with a much broader range of receptors than is typical for a Gα subunit, and have the ability to couple receptors which normally interact with Gαi, Gαs or Gαq (26). […] We constructed a plasmid encoding a Gpa1/Gα16 C-terminal domain chimera (pRS314-Gpa1/Gα16; FIG. 5b); FIG. 6h) derived from the same centromeric vector as used for expression of functional chimeras described above. The level of FUS1-LacZ induction in MMY9 cells expressing the Gpa1/Gα16 chimera was determined by preparing cell extracts, and incubating them with the LacZ substrate o-Nitrophenyl β-D-galactopyranoside (ONPG; see Materials and Methods). Gpa1/Gα16 reduced FUS1-LacZ expression resulting in β-galactosidase activity of 79+/−8 units (Table 2). This level was intermediate between the activity of control cells transformed with vector (239+/−30 units), in which the pathway is constitutively activated due to the absence of Gα, and the basal activity in cells producing wild-type Gpa1p (19+/−4 units).

B1: Gpa1p: endogenous yeast Gα subunit, product of the GPA1 gene (protein, UniProt P08539 2-472, looked up)
Guanine nucleotide-binding …: GCTVSTQTIGDESDPFLQNKRANDVIEQSLQLEKQRDKNEIKLLLLGAGESGKSTVLKQLKLLHQGGFSHQERLQYAQVIWADAIQSMKILIIQARKLGIQLDCDDPINNKDLFACKRILLKAKALDYINASVAGGSDFLNDYVLKYSERYETRRRVQSTGRAKAAFDEDGNISNVKSDTDRDAETVTQNEDADRNNSSRINLQDICKDLNQEGDDQMFVRKTSREIQGQNRRNLIHEDIAKAIKQLWNNDKGIKQCFARSNEFQLEGSAAYYFDNIEKFASPNYVCTDEDILKGRIKTTGITETEFNIGSSKFKVLDAGGQRSERKKWIHCFEGITAVLFVLAMSEYDQMLFEDERVNRMHESIMLFDTLLNSKWFKDTPFILFLNKIDLFEEKVKSMPIRKYFPDYQGRVGDAEAGLKYFEKIFLSLNKTNKPIYVKRTCATDTQTMKFVLSAVTDLIIQQNLKKIGII
[1]
  FUS1-LacZ Activity, 1 μM α-factor: 27.2 ± 1.7 light units (×10^6 cps)
  FUS1-LacZ Activity, No α-factor: 0.73 ± 0.25 light units (×10^6 cps)
[2]
  β-galactosidase activity (FUS1-LacZ), No Alpha Factor: 19+/−4 units
  β-galactosidase activity (FUS1-LacZ), Plus Alpha Factor: 273 +/− 49 units
[2]; listed as GPA1
  β-galactosidase activity (FUS1-LacZ), No Alpha Factor: 19 +/− 4 units
